Data from paper PMC11266573.

What was measured:
[1] = molecular target: H2AK119ub1-modified nucleosome core particle (NCP) (Xenopus | not stated) (UniProt P0CG47); assay: BLI; biotin-labeled nucleosomes immobilised on streptavidin (SA) XT biosensors (Gator), protein in solution; 30 °C, 1000 rpm; 20 mM Tris-HCl pH 7.5, 50 mM NaCl, 1 mM DTT, 0.01% Tween-20; 3 min association, 6 min dissociation
[2] = molecular target: H2AK119ub1-modified nucleosome core particle (NCP) (Xenopus | not stated) (UniProt P0CG47); assay: BLI; competition: DNMT3A1 UDR loaded to biosensors pre-loaded with H2AK119ub1-modified NCP and various concentrations of tag-free JARID2(1-60)

Row | Substance | Kd [1] [nM] | percent decrease of the DNMT3A1 UDR association response at a JARID2(1-60):DNMT3A1 UDR molar ratio of 32:1 [2] [%]
1 | GST-tagged N-terminal segment of JARID2 (residues 1–60) (from UniProt Q92833 1-60) (domain or fragment) | 250 | 
2 | tag-free JARID2 N-terminal segment (residues 1–60) (from UniProt Q92833 1-60) (domain or fragment) |  | 40
